In test [1] the target is T1, recombinantly produced ciliary neurotrophic factor (CNTF) (UniProt P26441 1-200, limits assumed).
T1 sequence (looked up): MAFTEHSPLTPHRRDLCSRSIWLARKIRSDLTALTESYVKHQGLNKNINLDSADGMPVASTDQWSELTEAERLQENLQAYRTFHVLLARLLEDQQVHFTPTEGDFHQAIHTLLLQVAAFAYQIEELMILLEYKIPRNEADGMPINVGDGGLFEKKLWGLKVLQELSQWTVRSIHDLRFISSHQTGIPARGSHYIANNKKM
As to the kind of experiment: ELISA. A general note: ELISA stands for enzyme-linked immunosorbent assay.

In a further test the target is T2, mouse CLCF1 (mCLCF1) (mouse, UniProt Q9QZM3 28-225, limits assumed).
T2 construct: also called serum CLCF1 (mouse)
T2 sequence (looked up): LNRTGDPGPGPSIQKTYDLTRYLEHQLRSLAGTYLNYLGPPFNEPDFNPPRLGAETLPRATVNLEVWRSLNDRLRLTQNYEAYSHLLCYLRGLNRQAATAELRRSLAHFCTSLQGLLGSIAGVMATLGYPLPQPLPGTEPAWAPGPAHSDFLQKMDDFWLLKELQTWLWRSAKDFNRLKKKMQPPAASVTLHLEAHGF
As to the kind of experiment: ELISA.

Test [2] has as its target T3, recombinant human cardiotrophin-like cytokine factor 1 (CLCF1) (human, UniProt Q9UBD9 28-225, limits assumed).
T3 construct: also called hCLCF1
T3 sequence (looked up): T2 sequence (looked up) with N63D, R73K, T126A, A141T, A143T, S188A, E194G
As to the kind of experiment: ELISA: incubated with CLCF1 4 h at room temperature, complex captured on anti-mouse Fc plate, detected with rabbit anti-CLCF1.
From the text: Then the complexes were captured using microtiter plates coated with anti-his antibody or anti-mouse Fc antibody. […] The same approach was used to characterize binding interaction with the beta receptors.

Where a chain is given by its changes, count along the chain named.

B1: eCNTFR-Fc (soluble engineered CNTFR fused to mouse IgG2a Fc) (Fc fusion)
chain: QRHSPQEAPHVQYERLGSDVTLPCGTANWDAAVTWRVNGTDLAPDLLNGSQLVLHGLELGHSGLYACFHRDSWHLRHQVLLHVGLPPQEPVLSCRSNTYPKGFYCSWHLPTPTYIPNTFNVTVLHGSKIMVCEKDPALKNRCHIRYMHLFSPIKHNVSISVSNALGHNATAITFDEFTIVKPDPPENVVARPVPSNPRRLEVTWQTPSTWPDPEFFPLKFFLRYRPLILDQWQHVELSDGTAHTIAAAYAGKEYIIQVAAKDNEFGTWSDWSVAAHATPWTEEPRHLTTEAQAAETTTSTTSSLAPPPTTKICDPGELGSRRLEPRGPTIKPCPPCKCPAPNLLGGPSVFIFPPKIKDVLMISLSPIVTCVVVDVSEDDPDVQISWFVNNVEVHTAQTQTHREDYNSTLRVVSALPIQHQDWMSGKEFKCKVNNKDLPAPIERTISKPKGSVRAPQVYVLPPPEEEMTKKQVTLTCMVTDFMPEDIYVEWTNNGKTELNYKNTEPVLDSDGSYFMYSKLRVEKKNWVERNSYSCSVVHEGLHNHHTTKSFSRTPGK
notes: Made in HEK293; also called Fc fusion eCNTFR; engineered CLCF1 trap
In the case of B1, the results for the binding result (in test [1]; in the test with mouse CLCF1 (mCLCF1); in test [2]) were “no binding”, “binds” and “binds”, respectively.

Values taken from patent publication US20190359683A1 (Stanford University, published 2019).
